Read-outs that look alike come from different tables or passages of the source. Starred links: 1 amine or outer side, 2 acyl side, 3 side chain; linkers in the order of their positions; H or OH if unused. Positions of bridges follow the written chain, without caps; N, C: chain ends. Non-standard residues stand in square brackets, D forms with d. No end group written: not given here. Fluorescein = fluorescein label on the C-terminal Lys side chain; TATA = O=C(CC[*:1])N1CN(C(=O)CC[*:2])CN(C(=O)CC[*:3])C1; TATB = O=C(C[*:1])N1CN(C(=O)C[*:2])CN(C(=O)C[*:3])C1; tBuAla = CC(C)(C)C[C@H](N)C(=O)O; Tle = CC(C)(C)[C@H](N)C(=O)O; Sar = CNCC(=O)O

Among the data in patent US20250340595A1 (published 2025) are Ki and Kd values, retold here.

Test [1] has as its target T1, Human TfR1 protein (R&D Systems, 2474-TR or Acro Biosystems, CD1-H5243) (human, UniProt P02786 89-760). Put plainly: FP competition, competitor BCY15768.
The target in test [2] is T1, Human TfR1 protein (R&D Systems, …). Put plainly: FP competition, competitor BCY15768. The source holds these as a separate data set.
In test [3] the target is T2, Recombinant human TfR1, His6-tagged (a.a. 89-760) (human, UniProt P02786 89-760).
T2 construct: range 89-760; captured and coupled on an NTA chip for SPR; also called transferrin receptor 1; CD71
Nature of the test: SPR, TfR1 on chip.

Test [4] concerns the target T3, Recombinant cynomolgus TfR1, His6-tagged (a.a. 89-760) (cynomolgus, UniProt H9EXL1 89-760 (rhesus entry)).
T3 construct: range 89-760; same product number named for FP and SPR; also called Cyno TfR1; Acro Biosystems TFR-C524a
Put plainly: SPR, TfR1 on chip. In general terms: In SPR one partner is held on a chip, and binding of the other changes the refractive index at the surface.

Test [5] deals with T3, Recombinant cynomolgus TfR1, …. Nature of the test: FP direct binding.
For test [6] the target is unchanged. Put plainly: FP competition table (Table 6).
Test [7] shares this target. Nature of the test: FP competition, competitor BCY15768.
Test [8] deals with T2, Recombinant human TfR1, His6-tagged …. Put plainly: SPR, TfR1 on chip. This is another data set of the same source.
The target of test [9] is T3, Recombinant cynomolgus TfR1, …. Nature of the test: SPR, TfR1 on chip. This is another data set of the same source.

T3 sequence (chain, as listed by the source): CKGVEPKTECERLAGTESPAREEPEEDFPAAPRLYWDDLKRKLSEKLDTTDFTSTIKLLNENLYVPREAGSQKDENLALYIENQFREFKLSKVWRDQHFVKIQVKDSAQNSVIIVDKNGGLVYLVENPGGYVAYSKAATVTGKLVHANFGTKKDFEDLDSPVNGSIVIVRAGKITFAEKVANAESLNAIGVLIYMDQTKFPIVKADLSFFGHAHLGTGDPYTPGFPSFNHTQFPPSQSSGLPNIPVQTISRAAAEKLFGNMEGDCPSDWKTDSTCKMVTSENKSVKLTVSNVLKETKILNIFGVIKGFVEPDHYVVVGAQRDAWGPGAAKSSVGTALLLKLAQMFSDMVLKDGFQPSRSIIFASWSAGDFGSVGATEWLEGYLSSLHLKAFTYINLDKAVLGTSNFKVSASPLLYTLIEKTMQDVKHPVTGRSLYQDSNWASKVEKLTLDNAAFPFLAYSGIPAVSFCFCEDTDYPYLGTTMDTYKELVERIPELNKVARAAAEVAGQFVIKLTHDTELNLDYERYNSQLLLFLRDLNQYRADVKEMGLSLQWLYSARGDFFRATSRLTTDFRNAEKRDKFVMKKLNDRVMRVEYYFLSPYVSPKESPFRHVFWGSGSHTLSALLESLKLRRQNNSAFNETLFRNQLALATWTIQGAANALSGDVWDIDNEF
T1 sequence (P02786 89-760 limits assumed): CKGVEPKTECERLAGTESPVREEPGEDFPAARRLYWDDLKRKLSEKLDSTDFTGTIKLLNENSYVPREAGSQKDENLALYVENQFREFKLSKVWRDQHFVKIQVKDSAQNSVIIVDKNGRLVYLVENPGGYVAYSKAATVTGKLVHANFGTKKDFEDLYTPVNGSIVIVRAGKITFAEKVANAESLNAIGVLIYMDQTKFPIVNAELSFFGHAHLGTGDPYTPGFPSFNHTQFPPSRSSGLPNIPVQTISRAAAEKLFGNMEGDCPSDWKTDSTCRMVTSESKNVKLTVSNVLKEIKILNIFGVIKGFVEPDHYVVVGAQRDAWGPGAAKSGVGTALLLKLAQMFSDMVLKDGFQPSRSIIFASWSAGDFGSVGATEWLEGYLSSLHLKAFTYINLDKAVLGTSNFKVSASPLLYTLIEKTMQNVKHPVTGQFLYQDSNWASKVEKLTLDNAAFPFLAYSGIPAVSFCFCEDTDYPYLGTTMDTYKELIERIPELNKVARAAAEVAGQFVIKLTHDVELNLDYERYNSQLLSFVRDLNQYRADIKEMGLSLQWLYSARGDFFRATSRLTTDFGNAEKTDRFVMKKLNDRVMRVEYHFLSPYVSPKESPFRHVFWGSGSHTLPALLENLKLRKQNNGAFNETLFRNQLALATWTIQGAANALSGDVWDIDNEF
T2 sequence (P02786 89-760 limits assumed): as above

B1: BCY17115 (peptide)
peptide: ACSPDAHLGCISYCPHP-NH2
modifications: linker 2-10-14 via TATB (inferred)
As usually defined, the Ki is a measure of affinity in units of concentration, obtained from inhibition or displacement. A word on the Kd: it is the concentration at which binding is half-saturated. On to B1, for which the Ki in [1] and in test [2] was 0.03 µM throughout. Further, the Kd in [3] was determined as 0.06 µM; in [4] it was 1.24 µM.

B2: BCY15768 (peptide)
peptide: ACSPDAHLGCISYCAXXXXXXK
modifications: 3 Cys on TATB; [Sar6]; C-terminal Lys carries fluorescein
On to B2, for which the values for the Kd in test [5] and in [4] were 0.707 µM and 3.8 µM, respectively. Further, in test [6], the Ki stood at 1.07 µM.

B3: BCY15770 (peptide)
peptide: ACSPDAHLGCISACA[Sar][Sar][Sar][Sar][Sar][Sar]K(Fluorescein)
modifications: linker 2-10-14 via TATB
In the case of B3, the Ki in test [6] came to 4.04 µM.

B4: BCY15774 (peptide)
peptide: ACSPDAHAGCISYCAXXXXXXK
modifications: 3 Cys on TATB; [Sar6]; C-terminal Lys carries fluorescein
With B4, in test [6], the Ki amounted to 3.47 µM. The Kd in test [4] was determined as 41 µM.

B5: BCY15777 (peptide)
peptide: ACSPDAHLGCIAYCA[Sar][Sar][Sar][Sar][Sar][Sar]K(Fluorescein)
modifications: linker 2-10-14 via TATB
In the case of B5, the Ki in [6] came out at 2.91 µM.

B6: BCY15772 (peptide)
peptide: ACSPAAHLGCISYCA[Sar][Sar][Sar][Sar][Sar][Sar]K(Fluorescein)
modifications: linker 2-10-14 via TATB
Consider B6, for which, in test [6], the Ki was 7.08 µM. The dissociation constant (Kd) in [4] amounted to 99 µM.

B7: BCY15771 (peptide)
peptide: ACSADAHLGCISYCA[Sar][Sar][Sar][Sar][Sar][Sar]K(Fluorescein)
modifications: linker 2-10-14 via TATB
Regarding B7, the Ki in test [6] came out at 1.06 µM. Also, the Kd in [4] turned out to be 4 µM.

B8: BCY15773 (peptide)
peptide: ACSPDAALGCISYCA[Sar][Sar][Sar][Sar][Sar][Sar]K(Fluorescein)
modifications: linker 2-10-14 via TATB
Regarding B8, the Ki in [6] was determined as 2.3 µM. The Kd in test [4] came out at 2.6 µM.

B9: BCY15769 (peptide)
peptide: ACAPDAHLGCISYCA[Sar][Sar][Sar][Sar][Sar][Sar]K(Fluorescein)
modifications: linker 2-10-14 via TATB
With B9, the Ki in test [6] was 1.12 µM. Also, the Kd is 0.07 µM in [3] and 2.2 µM in test [4].

B10: BCY16558 (peptide)
peptide: ACSPDAYLGC[tBuAla]SYCA
modifications: linker 2-10-14 via TATB
As to B10, the Ki in [1] and in test [2] was 1.62 µM throughout. Moreover, the results for the Kd in test [3] and in test [4] were 20 µM and 50 µM, respectively.

B11: BCY17116 (peptide)
peptide: WGKSCPIDAHLGCISYCA
modifications: linker 5-13-17 via TATB (inferred)
In the case of B11, the Ki in test [1] and in test [2] was 0.075 µM in each case. For the same molecule, the results for the dissociation constant Kd in test [3] and in test [4] were 0.001 µM and 0.474 µM, respectively.

B12: BCY15891 (peptide)
peptide: Ac-CSPDAHLGCISYC
modifications: linker 1-9-13 via TATB
On to B12, for which the Ki in [1] is 0.067 µM; in test [2], 0.094 µM. The Kd in test [3] worked out at 0.046 µM; in test [4], 3.99 µM.

B13: BCY17987 (peptide)
peptide: Ac-CSADAHLGCISYC
modifications: linker 1-9-13 via TATB (inferred)
On to B13, for which the Ki in test [1] was found to be 0.042 µM; in test [2] it was 0.383 µM. Besides, the figures for the Kd in [3] and in test [4] were 0.05 µM and 5.14 µM, respectively.

B14: BCY17991 (peptide)
peptide: CPXDAYLGCXSYC
modifications: 3 Cys on TATB; N-terminal acetyl (Ac); core as printed CP[HyP]DAYLGC[tBuGly]SYC
As for B14, the Ki in test [1] came to 0.002 µM; in test [2], 0.003 µM. For the same molecule, the Kd in [3] amounted to 0.0034 µM; in test [4] it was 0.035 µM.

B15: BCY17117 (peptide)
peptide: TYMNCPPDAHLGCISYCA
modifications: linker 5-13-17 via TATB (inferred)
B15: the Ki in test [1] and in test [2] was 0.037 µM each time. Further, the Kd was 0.0042 µM in test [3] and 0.805 µM in test [4].

B16: BCY17111 (peptide)
peptide: HTSCSPDAHLGCISYCA
modifications: linker 4-12-16 via TATB
As to B16, the Ki in [1] and in [2] was 0.086 µM throughout. Besides, the Kd in test [3] is 0.0083 µM; in test [4], 0.907 µM.

B17: BCY16051 (peptide)
peptide: ACSPDAHLGC[Tle]SYCA
modifications: linker 2-10-14 via TATB
As to B17, the Ki in test [1] turned out to be 0.066 µM; in test [7], 0.482 µM; in test [2] it was 0.066 µM. In addition, the Kd in test [3] was 0.025 µM; in test [4], 1.82 µM.

B18: BCY17993 (peptide)
peptide: NWNCPXDAYLGCXSYC
modifications: 3 Cys on TATB; N-terminal acetyl (Ac); core as printed CP[HyP]DAYLGC[tBuGly]SYC
Consider B18, for which the Ki in [1] amounted to 0.003 µM; in test [2] it was 0.005 µM. The figures for the Kd in [3] and in test [4] were 0.009 µM and 0.235 µM, respectively.

B19: BCY14475 (peptide)
peptide: ACSSDAYLGCISWCA[Sar][Sar][Sar][Sar][Sar][Sar]K(Fluorescein)
modifications: linker 2-10-14 via TATB
As for B19, in [5], the Kd turned out to be 2.62 µM.

B20: BCY13983 (peptide)
peptide: ACSADDWLGCISWCA
modifications: 3 Cys on TATB
Turning to B20, the Kd worked out at 450 µM in test [8] and 4580 µM in [9].

B21: BCY15471 (peptide)
peptide: ACSADDWLGCISYCA
modifications: linker 2-10-14 via TATB
For B21, the figures for the Ki in [1], in test [7] and in test [2] were 0.434 µM, 4.66 µM and 0.434 µM, respectively. Also, the Kd in [8] came out at 263 µM; in test [9], 4660 µM.

B22: BCY13986 (peptide)
peptide: ACSSDAYLGCISWCA
modifications: 3 Cys on TATB
As to B22, the Kd was 132 µM in test [8] and 2590 µM in [9].

B23: BCY17113 (peptide)
peptide: ESFCSPDAHLGCISYCA
modifications: linker 4-12-16 via TATB
Take B23: the Ki in test [1] and in [2] was 0.103 µM each time. Moreover, the values for the Kd in [3] and in [4] were 0.308 µM and 1.66 µM, respectively.

B24: BCY17118 (peptide)
peptide: IDSNCPNDAHLGCISYCA
modifications: linker 5-13-17 via TATB (inferred)
On to B24, for which the Ki in test [1] and in test [2] was 0.07 µM each time. Besides, the Kd in test [3] worked out at 0.12 µM; in [4], 1.96 µM.

B25: BCY13989 (peptide)
peptide: ACPPDSWQGCISYCA
modifications: linker 2-10-14 via TATB
In the case of B25, the Ki in [1] is 0.565 µM; in test [7] it was 3.44 µM; in test [2], 0.565 µM. Also, the values for the Kd in test [8], in [9] and in test [4] were 376 µM, 3440 µM and ~11 µM, respectively.

B26: BCY16048 (peptide)
peptide: ACPPDAHLGCISYCA
modifications: 3 Cys on TATB
As to B26, in test [7], the Ki was found to be 0.621 µM. Further, the Kd in test [4] was determined as 1.28 µM.

B27: BCY15467 (peptide)
peptide: ACPQDAYLGCISWCA
modifications: linker 2-10-14 via TATB
As to B27, the Ki in test [1] was 0.133 µM. The Kd in test [8] came out at 29.5 µM; in test [9] it was 1580 µM.

B28: BCY17110 (peptide)
peptide: HWMCSPDAHLGCISYCA
modifications: linker 4-12-16 via TATB
For the molecule B28, the Ki in [1] and in test [2] was 0.022 µM each time. Moreover, the Kd came out at 0.015 µM in test [3] and 0.232 µM in test [4].

B29: BCY14476 (peptide)
peptide: ACPPDSWQGCISYCA[Sar][Sar][Sar][Sar][Sar][Sar]K(Fluorescein)
modifications: linker 2-10-14 via TATB
With B29, the Kd in test [5] was 3.65 µM.

B30: BCY17119 (peptide)
peptide: ACSPDAHLGCISYCEHQE
modifications: linker 2-10-14 via TATB (inferred)
Regarding B30, the Ki in test [1] and in test [2] was 0.16 µM each time. The figures for the equilibrium dissociation constant (Kd) in test [3] and in [4] were 0.212 µM and 5.65 µM, respectively.

B31: BCY12652 (peptide)
peptide: ACALCNDWTLPWHHCA[Sar][Sar][Sar][Sar][Sar][Sar]K(Fluorescein)
modifications: linker 2-5-15 via TATA
In the case of B31, the Kd in [5] was 0.098 µM.
